Assays:
[1] = target: T1, HHH peptide (synthetic); experiment: plate binding assay (ELONA); EC50, streptavidin conjugate; 10 mM HEPES, 1.2 mM NaCl (so in the source), 5 mM MgCl2, 5 mM KCl, pH 7.4, 0.1% Tween-20, 1% sheared salmon sperm DNA, 300 uM dextran sulfate; 60 min; temperature not stated; conditions: tags: N-terminal Cys-biotin-PEG2; label: streptavidin conjugate
T1 chain: GHHHG

[2] = target: T1, HHH peptide; experiment: plate binding assay (ELONA); EC50, FluoSphere probe; 10 mM HEPES, 1.2 mM NaCl (so in the source), 5 mM MgCl2, 5 mM KCl, pH 7.4, 0.1% Tween-20, 1% sheared salmon sperm DNA, 300 uM dextran sulfate; 60 min; temperature not stated; conditions: tags: N-terminal Cys-biotin-PEG2; label: fluorescent FluoSphere; 24 bp duplex of strand 1 5' end with handle; rest single-stranded aptamer
[3] = target: VEGF (UniProt P15692-4 27-191); experiment: as above; conditions: protein: commercial; chain copies: 2; label: fluorescent FluoSphere; 24 bp duplex of strand 1 5' end with handle; rest single-stranded aptamer
[4] = target: Myoglobin (UniProt P68082 2-154); experiment: plate binding assay (ELONA); off-target; 10 mM HEPES, 1.2 mM NaCl (so in the source), 5 mM MgCl2, 5 mM KCl, pH 7.4, 0.1% Tween-20, 1% sheared salmon sperm DNA, 300 uM dextran sulfate; 60 min; temperature not stated; conditions: protein: commercial; label: fluorescent FluoSphere; 24 bp duplex of strand 1 5' end with handle; rest single-stranded aptamer
[5] = target: T1, HHH peptide; experiment: plate binding assay (ELONA); EC50, Streptavidin AlexaFluor 647; 10 mM HEPES, 1.2 mM NaCl (so in the source), 5 mM MgCl2, 5 mM KCl, pH 7.4, 0.1% Tween-20, 1% sheared salmon sperm DNA, 300 uM dextran sulfate; 60 min; temperature not stated; conditions: tags: N-terminal Cys-biotin-PEG2; label: streptavidin conjugates or HRP
[6] = target: T1, HHH peptide; experiment: plate binding assay (ELONA); streptavidin conjugate; Fig. S4B legend calls it EC50; 10 mM HEPES, 1.2 mM NaCl (so in the source), 5 mM MgCl2, 5 mM KCl, pH 7.4, 0.1% Tween-20, 1% sheared salmon sperm DNA, 300 uM dextran sulfate; 60 min; temperature not stated; conditions: tags: N-terminal Cys-biotin-PEG2; label: streptavidin conjugates or HRP
[7] = target: T1, HHH peptide; experiment: plate binding assay (ELONA); EC50, Streptavidin APC; 10 mM HEPES, 1.2 mM NaCl (so in the source), 5 mM MgCl2, 5 mM KCl, pH 7.4, 0.1% Tween-20, 1% sheared salmon sperm DNA, 300 uM dextran sulfate; 60 min; temperature not stated; conditions: tags: N-terminal Cys-biotin-PEG2; label: streptavidin conjugates or HRP
[8] = target: T1, HHH peptide; experiment: plate binding assay (ELONA); EC50, Streptavidin SureLight APC; 10 mM HEPES, 1.2 mM NaCl (so in the source), 5 mM MgCl2, 5 mM KCl, pH 7.4, 0.1% Tween-20, 1% sheared salmon sperm DNA, 300 uM dextran sulfate; 60 min; temperature not stated; conditions: tags: N-terminal Cys-biotin-PEG2; label: streptavidin conjugates or HRP
[9] = target: T1, HHH peptide; experiment: plate binding assay (ELONA); 10 mM HEPES, 1.2 mM NaCl (so in the source), 5 mM MgCl2, 5 mM KCl, pH 7.4, 0.1% Tween-20, 1% sheared salmon sperm DNA, 300 uM dextran sulfate; 60 min; temperature not stated; conditions: tags: N-terminal Cys-biotin-PEG2; label: fluorescent FluoSphere; 24 bp duplex of strand 1 5' end with handle; rest single-stranded aptamer
[10] = target: T2, Her2-his (UniProt P04626 23-652); experiment: plate binding assay (ELONA); EC50, FluoSphere probe, avidity; 10 mM HEPES, 1.2 mM NaCl (so in the source), 5 mM MgCl2, 5 mM KCl, pH 7.4, 0.1% Tween-20, 1% sheared salmon sperm DNA, 300 uM dextran sulfate; 60 min; temperature not stated; conditions: protein: commercial; tags: His tag; label: fluorescent FluoSphere; 24 bp duplex of strand 1 5' end with handle; rest single-stranded aptamer
[11] = target: T2, Her2-his; experiment: plate binding assay (ELONA); EC50, Qdot core; 10 mM HEPES, 1.2 mM NaCl (so in the source), 5 mM MgCl2, 5 mM KCl, pH 7.4, 0.1% Tween-20, 1% sheared salmon sperm DNA, 300 uM dextran sulfate; 60 min; temperature not stated; conditions: protein: commercial; tags: His tag; label: Qdot 655; 24 bp duplex of strand 1 5' end with handle; rest single-stranded aptamer
[12] = target: T2, Her2-his; experiment: plate binding assay (ELONA); about twofold lower than pre-annealed probe; 10 mM HEPES, 1.2 mM NaCl (so in the source), 5 mM MgCl2, 5 mM KCl, pH 7.4, 0.1% Tween-20, 1% sheared salmon sperm DNA, 300 uM dextran sulfate; 60 min; temperature not stated; conditions: protein: commercial; tags: His tag; label: fluorescent FluoSphere

B1: Biotin-H3T (ssDNA)
DNA: GTTTGCCGGTGGGCAGGTTTAGGGTCTGCTCGGGATTGCGGAGGAACATGCGTCGCAAAC
modifications: 5' biotin
apparent K (half saturation) [1]: 30 nM

B2: H3T annealed to DBCO-P7 handle on nanoparticle (mixed)
DNA 1: CAAGCAGAAGACGGCATACGAGATGTTTGCCGGTGGGCAGGTTTAGGGTCTGCTCGGGATTGCGGAGGAACATGCGTCGCAAACGTGTAGATCTCGGTGGTCGCCGTATCATT
DNA 2: ATCTCGTATGCCGTCTTCTGCTTG
modifications: handle 3' iSp9-DBCO coupled to azide-PEG
apparent K (half saturation) [2]: 12 nM

B3: VEGF aptamer annealed to DBCO-P7 handle on nanoparticle (mixed)
DNA 1: CAAGCAGAAGACGGCATACGAGATCCCGTCTTCCAGACAAGAGTGCAGGGGTGTAGATCTCGGTGGTCGCCGTATCATT
DNA 2: ATCTCGTATGCCGTCTTCTGCTTG
modifications: handle 3' iSp9-DBCO coupled to azide-PEG
apparent K (half saturation) [3]: 5.5 nM
binding result [4]: no binding

B4: Biotin-B1 (ssDNA)
DNA: CATGCTTCCCCAGGGAGATGGTTTGCCGGTGGGCAGGTTTAGGGTCTGCTCGGGATTGCGGAGGAACATGCGTCGCAAAC
modifications: 5' biotin
apparent K (half saturation) [5]: 43 nM
Kd [6]: 0.055 µM
apparent K (half saturation) [7]: 28 nM
apparent K (half saturation) [8]: 9.9 nM

B5: Her2 aptamer annealed to DBCO-P7 handle on nanoparticle (mixed)
DNA 1: CAAGCAGAAGACGGCATACGAGATTCTAAAAGGATTCTTCCCAAGGGGATCCAATTCAAACAGCGTGTAGATCTCGGTGGTCGCCGTATCATT
DNA 2: ATCTCGTATGCCGTCTTCTGCTTG
modifications: handle 3' iSp9-DBCO coupled to azide-PEG
binding result [9]: no binding

B6: P7-B1 annealed to DBCO-P7 handle on nanoparticle (mixed)
DNA 1: CAAGCAGAAGACGGCATACGAGATCATGCTTCCCCAGGGAGATGGTTTGCCGGTGGGCAGGTTTAGGGTCTGCTCGGGATTGCGGAGGAACATGCGTCGCAAACGTGTAGATCTCGGTGGTCGCCGTATCATT
DNA 2: ATCTCGTATGCCGTCTTCTGCTTG
modifications: handle 3' iSp9-DBCO coupled to azide-PEG
apparent K (half saturation) [2]: 2.7 nM
apparent K (half saturation) [10]: 5.2 nM

B7: P7-B1 annealed to DBCO-P7 handle on Qdot 655 (mixed)
DNA 1: CAAGCAGAAGACGGCATACGAGATCATGCTTCCCCAGGGAGATGGTTTGCCGGTGGGCAGGTTTAGGGTCTGCTCGGGATTGCGGAGGAACATGCGTCGCAAACGTGTAGATCTCGGTGGTCGCCGTATCATT
DNA 2: ATCTCGTATGCCGTCTTCTGCTTG
modifications: handle 3' iSp9-DBCO coupled to azide-PEG
apparent K (half saturation) [11]: 55 nM

B8: DBCO-B1 directly conjugated to nanoparticle (ssDNA)
DNA: CAAGCAGAAGACGGCATACGAGATCATGCTTCCCCAGGGAGATGGTTTGCCGGTGGGCAGGTTTAGGGTCTGCTCGGGATTGCGGAGGAACATGCGTCGCAAACGTGTAGATCTCGGTGGTCGCCGTATCATT
modifications: 5' DBCO-C7 coupled to azide-PEG
binding result [12]: binds

Reference: publication PMC8497506, “Modular fluorescent nanoparticle DNA probes for detection of peptides and proteins”
